# B1: Auxin-responsive protein IAA12 (Arabidopsis thaliana (Mouse-ear cress)), Q38830 (parent)
# chain: MRGVSELEVGKSNLPAESELELGLGLSLGGGAWKERGRILTAKDFPSVGSKRSAESSSHQGASPPRSSQVVGWPPIGLHRMNSLVNNQAMKAARAEEGDGEKKVVKNDELKDVSMKVNPKVQGLGFVKVNMDGVGIGRKVDMRAHSSYENLAQTLEEMFFGMTGTTCREKVKPLRLLDGSSDFVLTYEDKEGDWMLVGDVPWRMFINSVKRLRIMGTSEASGLAPRRQEQKDRQRNNPV
# partner: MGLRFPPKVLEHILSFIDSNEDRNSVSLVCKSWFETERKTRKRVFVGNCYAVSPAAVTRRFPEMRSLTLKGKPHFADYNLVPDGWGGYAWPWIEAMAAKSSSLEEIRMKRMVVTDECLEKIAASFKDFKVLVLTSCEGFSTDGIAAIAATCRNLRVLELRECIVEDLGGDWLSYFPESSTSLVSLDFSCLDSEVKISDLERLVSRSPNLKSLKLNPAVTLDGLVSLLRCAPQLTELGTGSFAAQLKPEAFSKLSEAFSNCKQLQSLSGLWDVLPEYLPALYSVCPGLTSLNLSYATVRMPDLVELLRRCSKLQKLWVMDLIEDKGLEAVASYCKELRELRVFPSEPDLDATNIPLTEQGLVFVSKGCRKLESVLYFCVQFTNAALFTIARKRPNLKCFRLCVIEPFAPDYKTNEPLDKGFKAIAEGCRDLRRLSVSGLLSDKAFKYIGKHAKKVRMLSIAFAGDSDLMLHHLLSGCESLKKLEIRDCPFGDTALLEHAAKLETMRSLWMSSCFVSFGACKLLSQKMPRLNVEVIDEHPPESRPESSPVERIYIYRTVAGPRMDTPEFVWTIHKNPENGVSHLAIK
# B2: Auxin-responsive protein IAA12 (Arabidopsis thaliana (Mouse-ear cress)), Q38830 (parent)
# chain: B1 chain
# partner: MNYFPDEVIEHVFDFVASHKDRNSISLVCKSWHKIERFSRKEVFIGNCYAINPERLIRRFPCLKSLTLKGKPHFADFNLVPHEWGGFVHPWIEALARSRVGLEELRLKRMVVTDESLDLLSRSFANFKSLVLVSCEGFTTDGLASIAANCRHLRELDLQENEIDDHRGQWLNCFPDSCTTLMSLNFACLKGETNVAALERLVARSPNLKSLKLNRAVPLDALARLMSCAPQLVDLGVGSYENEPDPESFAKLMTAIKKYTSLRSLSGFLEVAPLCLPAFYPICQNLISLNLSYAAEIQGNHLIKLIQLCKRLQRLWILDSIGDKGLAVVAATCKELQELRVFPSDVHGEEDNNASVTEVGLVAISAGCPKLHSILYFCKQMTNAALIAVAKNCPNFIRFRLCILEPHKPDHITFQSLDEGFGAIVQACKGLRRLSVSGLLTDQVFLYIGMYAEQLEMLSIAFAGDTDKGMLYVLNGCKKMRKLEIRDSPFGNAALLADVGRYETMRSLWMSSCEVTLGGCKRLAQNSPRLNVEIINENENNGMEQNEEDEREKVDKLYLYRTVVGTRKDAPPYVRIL
# B3: Auxin-responsive protein IAA12 (Arabidopsis thaliana (Mouse-ear cress)), Q38830 (parent)
# chain: B1 chain
# partner: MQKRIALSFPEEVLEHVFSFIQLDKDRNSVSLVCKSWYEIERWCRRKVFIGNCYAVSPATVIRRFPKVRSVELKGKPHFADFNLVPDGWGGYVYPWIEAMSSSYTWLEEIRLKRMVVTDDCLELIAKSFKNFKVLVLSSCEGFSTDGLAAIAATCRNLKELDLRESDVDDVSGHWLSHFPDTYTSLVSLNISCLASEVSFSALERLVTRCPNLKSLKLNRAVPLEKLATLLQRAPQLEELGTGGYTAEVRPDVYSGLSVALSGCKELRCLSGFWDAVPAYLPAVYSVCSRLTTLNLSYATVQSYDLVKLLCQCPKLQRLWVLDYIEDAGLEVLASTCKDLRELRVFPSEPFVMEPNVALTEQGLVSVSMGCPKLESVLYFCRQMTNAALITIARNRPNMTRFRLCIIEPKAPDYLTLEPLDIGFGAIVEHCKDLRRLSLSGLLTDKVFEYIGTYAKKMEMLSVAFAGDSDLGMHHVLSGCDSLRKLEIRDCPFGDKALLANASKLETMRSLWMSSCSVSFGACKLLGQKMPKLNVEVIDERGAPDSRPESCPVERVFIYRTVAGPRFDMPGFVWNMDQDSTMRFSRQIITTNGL
# Variants of: B1
# Details: with grh1_arath GRH1, Q9ZR12
row,effect of a mutation on the interaction,Variant
1,decreasing interaction,MRGVSELEVGKSNLPAESELELGLGLSLGGGAWKERGRILTAKDFPSVGSKRSAESSSHQGASPPRSSQVVGWSPIGLHRMNSLVNNQAMKAARAEEGDGEKKVVKNDELKDVSMKVNPKVQGLGFVKVNMDGVGIGRKVDMRAHSSYENLAQTLEEMFFGMTGTTCREKVKPLRLLDGSSDFVLTYEDKEGDWMLVGDVPWRMFINSVKRLRIMGTSEASGLAPRRQEQKDRQRNNPV [P74S]

# Variants of: B2
# Details: with afb3_arath AFB3, Q9LPW7
row,effect of a mutation on the interaction,Variant
1,decreasing interaction,MRGVSELEVGKSNLPAESELELGLGLSLGGGAWKERGRILTAKDFPSVGSKRSAESSSHQGASPPRSSQVVGWSPIGLHRMNSLVNNQAMKAARAEEGDGEKKVVKNDELKDVSMKVNPKVQGLGFVKVNMDGVGIGRKVDMRAHSSYENLAQTLEEMFFGMTGTTCREKVKPLRLLDGSSDFVLTYEDKEGDWMLVGDVPWRMFINSVKRLRIMGTSEASGLAPRRQEQKDRQRNNPV [P74S]

# Variants of: B3
# Details: with tir1_arath TIR1, Q570C0
row,effect of a mutation on the interaction,Variant
1,decreasing interaction,MRGVSELEVGKSNLPAESELELGLGLSLGGGAWKERGRILTAKDFPSVGSKRSAESSSHQGASPPRSSQVVGWSPIGLHRMNSLVNNQAMKAARAEEGDGEKKVVKNDELKDVSMKVNPKVQGLGFVKVNMDGVGIGRKVDMRAHSSYENLAQTLEEMFFGMTGTTCREKVKPLRLLDGSSDFVLTYEDKEGDWMLVGDVPWRMFINSVKRLRIMGTSEASGLAPRRQEQKDRQRNNPV [P74S]

# — IntAct's records for PubMed 15992545
